For assay [1], the system named is (CTA)12/(TAG)12 36-mer DNA duplex. Put plainly: In vitro DNA methylation assay of DIM2 (WT or mutant). The class given is biochemical. Particulars: for reduction of DNA methylation efficiency of DIM2 by mutation: vs WT DIM2. Details: DNA methylation activity: unit not given here.
The subject of the next assay is HP1. Description: Size-exclusion chromatography of DIM2-HP1 complex. The class given is binding, Neurospora Crassa. The conditions noted are these: 1.0 µM DIM2 and/or 2.5 µM HP1, Superdex 200 increase 10/300 GL, pH 7.5. The method, then: For size-exclusion chromatography analysis, 400 µL of the sample mixture containing 1.0 µM DIM2 and/or 2.5 µM HP1 was loaded onto Superdex 200 increase 10/300 GL column (GE Healthcare) and eluted at a flow rate of 0.5 mL/min, in the buffer containing 20 mM Tris-HCl (pH 7.5), 100 mM NaCl, 5% glycerol, and 5 mM DTT. The proteins in each fraction were then visualized by SDS-PAGE.
In general terms: In gel filtration, larger molecules generally elute earlier.

Assay [2] relates to DNA duplex (Upper strand: 5’-ATTATTAATCTAAATTTA-3’). Description: Electrophoretic mobility shift assay (EMSA). The class given is binding. Particulars: 0.1 µM DNA duplex, 0, 0.2 or 0.4 µM DIM2, in presence of 0.8 µM H3K9me3 peptide, pH 8.0, 4 °C. The method, then:
Each 10-µL reaction mixture contained 0.1 µM DNA duplex (Upper strand: 5’-[…]-3’) mixed with 0, 0.2, or 0.4 µM DIM2, WT or mutant (W261A or W581A), and/or 0.8 µM H3K9me3 peptide in binding buffer containing 20 mM Tris-HCl (pH 8.0), 75 mM NaCl, 10% glycerol, 5 mM DTT, and 2% NP-40. Samples were resolved on a 5% w/v polyacrylamide gel (59:1 for acrylamide:bis-acrylamide) with the running buffer containing 1 × Tris-Glycine (pH 8.6) at 4 °C for 1 h. The gel was stained with SYBR™ Gold (Thermo Fisher Scientific) for 10 min and visualized by ChemiDoc Imaging System (Bio-Rad).
A general note: In EMSA bound probe runs differently from free probe, usually more slowly.

The test system of the next assay is DIM2. Put plainly: In vitro DNA methylation assay: effect of HP1 and H3 peptides on DIM2 activity. The class given is biochemical, Neurospora Crassa. Details: DNA methylation activity of DIM2 in presence of HP1, WT or W98A: unit not given beside the values. Particulars: for DNA methylation activity of DIM2 in presence of HP1, WT or W98A: Sup Fig. 1e, (CTA)12/(TAG)12 DNA duplex, 1.0 µM DIM2, 2 µM HP1, 30 °C, 30 min, pH 8.0. As for the experimental part: In vitro DNA methylation assay was performed in a 20-µL reaction mixture. For the substrate specificity assay, the following DNA duplexes were used as substrates: CG DNA (Upper strand: 5’-[…]-3’), hemimethylated CG DNA (Upper strand: 5’-TAAATTTXGATTAATAAT-3’, X = 5-methylcytosine; Lower strand: 5’-[…] -3’), CHG DNA (Upper strand: 5’-[…]-3’), and CHH DNA (Upper strand: 5’-[…]-3’). The reaction mixture contains 0.25 µM DIM2, 1.0 µM DNA duplex, 1.0 µM synthesized H3K9me3 peptide (residues 1-24 of H3 plus a C-terminal tryptophan), 0.5 µM HP1, and 0.56 µM S-adenosyl-L-[methyl-^3H] methionine with a specific activity of 18 Ci/mmol (PerkinElmer) in buffer containing 50 mM Tris-HCl (pH 8.0), 100 mM NaCl, 0.05% β-mercaptoethanol, 5% glycerol, and 200 µg/mL BSA. For the rest of the DNA methylation assay, each reaction mixture contains 1.0 µM DIM2, […] methionine with a specific activity of 18 Ci/mmol (PerkinElmer) in buffer containing 50 mM Tris-HCl (pH 8.0), 100 mM NaCl, 0.05% β-mercaptoethanol, 5% glycerol, and 200 µg/mL BSA. In addition, 1.0 µM synthesized H3K9me3 or H3K9me0 peptide (residues 1-24 of H3 plus a C-terminal tryptophan) and/or 2 µM HP1 protein was included to evaluate the effect of H3 and HP1 regulation. The reaction mixture was incubated at 30 °C for 30 min, unless indicated otherwise, before being quenched by the addition of 5 µL of 10 mM cold SAM. After the reaction, 8 μL of the mixtures was loaded onto Hybond N nylon membrane (GE Healthcare), which was left to dry out at room temperature. The membrane was subsequently washed with 0.2 M ammonium bicarbonate (pH 8.2) two times (20 min per time), deionized water (20 min) once, and 95% ethanol (5 min) once. After air dried, the membrane carrying each sample was transferred into a vial containing 3 mL scintillation buffer (Fisher). The tritium scintillation was measured and recorded by a Beckman LS6500 counter. Each the reaction was repeated three times.

The mark [3] stands for this setting: Fig. 2g, in the presence of HP1 (2 µM) and H3_1-24K9me3 peptide (1.0 µM), 1.0 µM DIM2, 30 °C, 30 min, pH 8.0, replicate 1.
Setting [4] is: Fig. 2g, in the presence of HP1 (2 µM) and H3_1-24K9me3 peptide (1.0 µM), 1.0 µM DIM2, 30 °C, 30 min, pH 8.0, replicate 2.
Where [5] appears, read: Fig. 2g, in the presence of HP1 (2 µM) and H3_1-24K9me3 peptide (1.0 µM), 1.0 µM DIM2, 30 °C, 30 min, pH 8.0, replicate 3.
The mark [6] stands for this setting: Fig. 6d, H3_1-24K9me3 binding-associated mutants, 1.0 µM DIM2, 1.0 µM DNA duplex, 30 °C, 30 min, pH 8.0, replicate 1.
Where [7] appears, read: Fig. 6d, H3_1-24K9me3 binding-associated mutants, 1.0 µM DIM2, 1.0 µM DNA duplex, 30 °C, 30 min, pH 8.0, replicate 2.
Where [8] appears, read: Fig. 6d, H3_1-24K9me3 binding-associated mutants, 1.0 µM DIM2, 1.0 µM DNA duplex, 30 °C, 30 min, pH 8.0, replicate 3.

Consider five molecules from paper PMC11315935, “Multi-layered heterochromatin interaction as a switch for DIM2-mediated DNA methylation” (Nature Communications, 2024).

Changes are numbered by the printed parent chain. Names and notes keep the numbering of the source.

B1: DIM2L134A/L139A: DIM2 L134A/L139A double mutation (protein)
chain: MDSPDRSHGGMFIDVPAETMGFQEDYLDMFASVLSQGLAKEGDYAHHQPLPAGKEECLEPIAVATTITPSPDDPQLQLQLELEQQFQTESGLNGVDPAPAPESEDEADLPDGFSDESPDDDFVVQRSKHITVDAPVSTAINPRSTFQRIDENDNLVPPPQSTPERVAVEDLLKAAKAAGKNKEDYIEFELHDFNFYVNYAYHPQEMRPIQLVATKVLHDKYYFDGVLKYGNTKHYVTGMQVLELPVGNYGASLHSVKGQIWVRSKHNAKKEIYYLLKKPAFEYQRYYQPFLWIADLGKHVVDYCTRMVERKREVTLGCFKSDFIQWASKAHGKSKAFQNWRAQHPSDDFRTSVAANIGYIWKEINGVAGAKRAAGDQLFRELMIVKPGQYFRQEVPPGPVVTEGDRTVAATIVTPYIKECFGHMILGKVLRLAGEDAEKEKEVKLAKRLKIENKNATKADTKDDMKNDTATESLPTPLRSLPVQVLEATPIESDIVSIVSSDLPPSENNPPPLTNGSVKPKAKANPKPKPSTQPLHAAHVKYLSQELVNKIKVGDVISTPRDDSSNTDTKWKPTDTDDHRWFGLVQRVHTAKTKSSGRGLNSKSFDVIWFYRPEDTPCCAMKYKWRNELFLSNHCTCQEGHHARVKGNEVLAVHPVDWFGTPESNKGEFFVRQLYESEQRRWITLQKDHLTCYHNQPPKPPTAPYKPGDTVLATLSPSDKFSDPYEVVEYFTQGEKETAFVRLRKLLRRRKVDRQDAPANELVYTEDLVDVRAERIVGKCIMRCFRPDERVPSPYDRGGTGNMFFITHRQDHGRCVPLDTLPPTLRQGFNPLGNLGKPKLRGMDLYCGGGNFGRGLEEGGVVEMRWANDIWDKAIHTYMANTPDPNKTNPFLGSVDDLLRLALEGKFSDNVPRPGEVDFIAAGSPCPGFSLLTQDKKVLNQVKNQSLVASFASFVDFYRPKYGVLENVSGIVQTFVNRKQDVLSQLFCALVGMGYQAQLILGDAWAHGAPQSRERVFLYFAAPGLPLPDPPLPSHSHYRVKNRNIGFLCNGESYVQRSFIPTAFKFVSAGEGTADLPKIGDGKPDACVRFPDHRLASGITPYIRAQYACIPTHPYGMNFIKAWNNGNGVMSKSDRDLFPSEGKTRTSDASVGWKRLNPKTLFPTVTTTSNPSDARMGPGLHWDEDRPYTVQEMRRAQGYLDEEVLVGRTTDQWKLVGNSVSRHMALAIGLKFREAWLGTLYD
modifications: left off: His6, N-terminal, cleaved | MBP, N-terminal, cleaved
notes: DIM2 L134A/L139A double mutation
In the case of B1, the DNA methylation activity in assay [1] (setting [3]) was 1.016; in assay [1] (setting [4]), 1.136; in assay [1] (setting [5]), 1.188. Further, the “DIM2-HP1 complex formation (in words)” value in the assay on HP1 was “partial disruption of the DIM2-HP1 complex”.

B2: DIM2W581A: DIM2 with W581A mutation to the BAH1 domain (protein)
chain: B1 chain with A134L, A139L, W581A
modifications: left off: His6, N-terminal, cleaved | MBP, N-terminal, cleaved
notes: DIM2 with W581A mutation to the BAH1 domain
Turning to B2, the DNA methylation activity is 4.016 in assay [1] (setting [6]), 4.128 in assay [1] (setting [7]) and 4.356 in assay [1] (setting [8]). Moreover, the “reduction of DNA methylation efficiency of DIM2 by mutation” value in assay [1] is 4–5 fold. The “DNA-binding affinity of DIM2 (in words)” value in assay [2] was “modestly reduced the DNA-binding affinity”.

B3: DIM2W261A: DIM2 with W261A mutation to the RFTS domain (protein)
chain: B1 chain with A134L, A139L, W261A
modifications: left off: His6, N-terminal, cleaved | MBP, N-terminal, cleaved
notes: DIM2 with W261A mutation to the RFTS domain
Turning to B3, the values for the DNA methylation activity in assay [1] (setting [6]), in assay [1] (setting [7]) and in assay [1] (setting [8]) were 3.359, 3.206 and 3.347, respectively. The “reduction of DNA methylation efficiency of DIM2 by mutation” value in assay [1] is recorded as 4–5 fold. The “DNA-binding affinity of DIM2 (in words)” value in assay [2] is “modestly reduced the DNA-binding affinity”.

B4: DIM2LLR: DIM2 L134A/L139A/R1104A triple mutation (protein)
chain: B1 chain with R1104A
modifications: left off: His6, N-terminal, cleaved | MBP, N-terminal, cleaved
notes: DIM2 L134A/L139A/R1104A triple mutation
On to B4, for which the “DNA methylation activity of DIM2 (in words)” value in assay [1] (1.0 µM DIM2, 30 °C, 30 min, pH 8.0) is “completely abolished the DNA methylation activity”. The DNA methylation activity is given as 0.066 in assay [1] (setting [3]), 0.154 in assay [1] (setting [4]) and 0.275 in assay [1] (setting [5]). Moreover, the “DIM2-HP1 complex formation (in words)” value in the assay with HP1 is “complete disruption of the DIM2-HP1 complex”.

B5: HP1W98A: HP1 with H3K9me3-cage mutation W98A (protein)
chain: MPYDPSALSDEEAASSVELDTRSATSSSKKQSRDKKSVKYTIPEPEDFEDEEQNGDGADEGGEDDEEGDEEEEDVYVVEKILDHMLNDDNEPLFLVKAEGYEKKSDQTWEPEDTLIEGASERLKEYFTKIGGREKIFEASAAAQKIKKRGRPSSNSGTPQASSNKRSRKNGDHPLNSEEPQTAKNAAWKPPAGSWEEHIAQLDACEDEDTHKLMVYLTWKNGHKTQHTTDVIYKRCPQKMLQFYERHVRIIKRDPDSEDREGSVSQ
modifications: left off: His6, N-terminal, cleaved | MBP, N-terminal, cleaved
notes: HP1 with H3K9me3-cage mutation W98A
Consider B5, for which the “DNA methylation activity of DIM2 in presence of HP1, WT or W98A” value in the assay with DIM2 (replicate 1) came out at 45.423; in the assay on DIM2 (replicate 2) it was 47.119; with DIM2 (replicate 3) it was 45.142. Also, in the assay on DIM2 (W98A vs WT HP1), the “increase of activity-stimulation effect of HP1 on DIM2” value was ~ 2 fold.
